Assay results: paper PMC6349121

Molecular target: GST-cIAP1R (cIAP1 RING domain, residues 556-C, with GST) (human) (UniProt Q13490)
Test: SPR; as a1, but UbcH5B–Ub variants diluted in running buffer containing 0.6 mM UbΔGG; GST-cIAP1R coupled to a CM-5 chip, 25 °C; steady-state affinity analysis

Kd: 220 nM
Substance: UbcH5B–Ub in the presence of 0.6 mM UbΔGG (UbcH5B–Ub with backside-bound UbΔGG) (from UniProt P62837 1-147; P0CG47 1-76; P0CG47 1-74) (complex)
